PMC4706430, “In Vitro Mode of Action and Anti-thrombotic Activity of Boophilin, a Multifunctional Kunitz Protease Inhibitor from the Midgut of a Tick Vector of Babesiosis, Rhipicephalus microplus” (PLoS Neglected Tropical Diseases, 2016)

Assays:
FXIa [1] = biological target: T1, FXIa (human, UniProt P03951 19-387; P03951 388-625); test: enzyme inhibition kinetics (chromogenic substrate hydrolysis); Lineweaver-Burk plots and re-plot of the slope against Boophilin concentration; Boophilin (0-1280 nM) with S2238 or S2366 (125-750 μM), then thrombin (0.2 nM) or FXIa (0.5 nM); TBS-BSA pH 7.4; conditions: both partners purified
T1 construct: coagulation factor XIa heavy chain; coagulation factor XIa light (catalytic) chain; for the Enzyme Research Laboratories FXIa no species is printed; also called Factor XIa; source: bought: Enzyme Research Laboratories (reagents list); bought: Molecular Innovations (protease screen); copies: 2 + 2

α-thrombin [2] = biological target: T2, α-thrombin (human, UniProt P00734 364-622); test: as above; conditions: both partners purified
FXIa [3] = biological target: T1, FXIa; test: enzyme inhibition kinetics (chromogenic substrate hydrolysis); apparent Ki from Vs/Vo against Boophilin concentration (0-640 nM); FXIa (10 nM) pre-incubated 1 hour with Boophilin, then S2366 (250 μM); TBS-BSA pH 7.4; conditions: both partners purified
FXIa [4] = biological target: T1, FXIa; test: SPR; Biacore T100; FXIa immobilised on CM5 by amine coupling (1280.4 RU); Boophilin (31.25-500 nM) injected 120 s, dissociation 600 s, 30 μL/minute, 25°C, HBS-P pH 7.4; global 1:1 Langmuir fit; conditions: both partners purified
α-thrombin [5] = biological target: T2, α-thrombin; test: SPR; Biacore T100; Boophilin immobilised on CM5 by amine coupling (301.4 RU); thrombin (15.625-500 nM) injected 90 s, dissociation 180 s, 30 μL/minute, 25°C, HBS-P pH 7.4; global 1:1 Langmuir fit; α-thrombin, γ-thrombin and PPACK-thrombin also tested at 1 μM as analytes; conditions: both partners purified
α-thrombin [6] = biological target: T2, α-thrombin; test: cell-based or functional assay
kallikrein = kallikrein (human, UniProt P03952 20-638); test: cell-based or functional assay
Sequence of kallikrein (P03952 20-638): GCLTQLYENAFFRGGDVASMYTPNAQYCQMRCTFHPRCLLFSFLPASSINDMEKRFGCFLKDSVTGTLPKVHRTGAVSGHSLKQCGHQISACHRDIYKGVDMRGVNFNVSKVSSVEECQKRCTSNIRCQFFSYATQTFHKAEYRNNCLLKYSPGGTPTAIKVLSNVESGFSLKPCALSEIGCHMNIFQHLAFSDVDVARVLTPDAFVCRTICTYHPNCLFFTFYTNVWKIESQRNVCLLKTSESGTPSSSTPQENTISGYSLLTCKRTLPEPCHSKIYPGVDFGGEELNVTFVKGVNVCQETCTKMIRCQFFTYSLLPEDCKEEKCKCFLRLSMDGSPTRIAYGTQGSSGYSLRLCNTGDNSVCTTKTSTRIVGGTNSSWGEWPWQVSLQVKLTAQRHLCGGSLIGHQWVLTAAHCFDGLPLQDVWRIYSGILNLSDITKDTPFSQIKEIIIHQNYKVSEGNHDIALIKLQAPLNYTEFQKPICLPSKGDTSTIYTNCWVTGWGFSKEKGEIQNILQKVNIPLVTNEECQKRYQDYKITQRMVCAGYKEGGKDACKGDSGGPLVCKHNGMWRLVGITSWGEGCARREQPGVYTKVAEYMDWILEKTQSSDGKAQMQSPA

T1 sequence (P03951 19-387, chain 1 of 2): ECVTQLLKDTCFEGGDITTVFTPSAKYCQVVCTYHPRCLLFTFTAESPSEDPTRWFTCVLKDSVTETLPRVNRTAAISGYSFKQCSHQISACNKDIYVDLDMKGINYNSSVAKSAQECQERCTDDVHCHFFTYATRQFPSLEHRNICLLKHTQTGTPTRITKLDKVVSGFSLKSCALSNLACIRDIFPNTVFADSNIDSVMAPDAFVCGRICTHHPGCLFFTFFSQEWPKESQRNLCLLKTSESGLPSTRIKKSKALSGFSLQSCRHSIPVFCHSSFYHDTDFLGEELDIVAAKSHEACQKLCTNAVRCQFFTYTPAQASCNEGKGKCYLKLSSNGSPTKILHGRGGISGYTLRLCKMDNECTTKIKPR
T1 sequence (P03951 388-625, chain 2 of 2): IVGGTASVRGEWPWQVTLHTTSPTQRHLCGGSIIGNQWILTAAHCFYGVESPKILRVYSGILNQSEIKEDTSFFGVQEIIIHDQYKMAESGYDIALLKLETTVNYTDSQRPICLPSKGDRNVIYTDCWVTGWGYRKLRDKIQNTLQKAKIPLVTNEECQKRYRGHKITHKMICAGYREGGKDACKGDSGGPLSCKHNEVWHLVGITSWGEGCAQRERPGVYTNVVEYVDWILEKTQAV

B1: Boophilin (natural protein)
chain: QRNGFCRLPADEGICKALIPRFYFNTETGKCTMFSYGGCGGNENNFETIEDCQKACGAPERVSDFEGADFKTGCEPAADSGSCAGQLERWFYNVRSGECETFVYGGCGGNDNNYESEEECELVCKNM
modifications: N-terminus blocked (Edman degradation)
Ki (FXIa [1]): 115 nM
Ki (α-thrombin [2]): 101 nM
Ki (FXIa [3]): ~82 nM
Kd (FXIa [4]): ~125 nM
Kd (α-thrombin [5]): 116 nM
koff (α-thrombin [5]): 0.36 s⁻¹
kon (α-thrombin [5]): 3e+06 M⁻¹ s⁻¹
IC50 of residual amidolytic activity (S-2238) of clot-bound thrombin (Fig 2H) (α-thrombin [6]): ~1000 nM
IC50 of thrombin-mediated fibrin formation (thrombin 200 nM, fibrinogen 2 mg/mL; absorbance at 600 nm) (Fig 2G) (α-thrombin [6]): ~1000 nM
IC50 of the amidolytic activity of kallikrein (2 nM) on S2302, Boophilin 0-3200 nM, Vs/Vo (Fig 3G) (kallikrein): 919000 nM
